Data reported in patent US20240383984A1 (Genentech, published 2024).

T1: human FcRH3 (full-length, on SVT2 cells) (human, UniProt Q96P31 18-734)
T1 construct: whole, on cells; also called SVT2-FcRH3
T1 sequence (looked up): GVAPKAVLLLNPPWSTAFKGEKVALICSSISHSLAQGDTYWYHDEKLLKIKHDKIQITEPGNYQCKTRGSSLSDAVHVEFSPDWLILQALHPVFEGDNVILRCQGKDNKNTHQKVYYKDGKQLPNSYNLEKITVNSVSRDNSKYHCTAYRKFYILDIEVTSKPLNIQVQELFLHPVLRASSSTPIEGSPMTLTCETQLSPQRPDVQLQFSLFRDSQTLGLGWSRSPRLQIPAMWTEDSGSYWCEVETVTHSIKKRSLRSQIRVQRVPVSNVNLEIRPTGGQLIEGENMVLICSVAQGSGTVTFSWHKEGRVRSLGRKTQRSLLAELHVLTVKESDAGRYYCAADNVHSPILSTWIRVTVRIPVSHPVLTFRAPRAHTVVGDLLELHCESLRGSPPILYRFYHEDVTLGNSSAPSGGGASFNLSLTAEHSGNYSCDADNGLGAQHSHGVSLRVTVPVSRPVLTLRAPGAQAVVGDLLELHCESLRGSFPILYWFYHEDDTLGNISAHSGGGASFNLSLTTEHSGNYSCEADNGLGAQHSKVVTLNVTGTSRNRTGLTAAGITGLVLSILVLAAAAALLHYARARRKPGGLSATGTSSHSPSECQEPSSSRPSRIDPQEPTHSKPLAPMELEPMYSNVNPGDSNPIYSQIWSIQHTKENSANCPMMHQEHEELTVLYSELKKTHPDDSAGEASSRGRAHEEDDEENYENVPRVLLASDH

T2: cynomolgus FcRH5 (full-length, on cells) (cynomolgus monkey)
T2 construct: also called SVT2-Cyno-FcRH5; cyno FcRH5
T2 chain: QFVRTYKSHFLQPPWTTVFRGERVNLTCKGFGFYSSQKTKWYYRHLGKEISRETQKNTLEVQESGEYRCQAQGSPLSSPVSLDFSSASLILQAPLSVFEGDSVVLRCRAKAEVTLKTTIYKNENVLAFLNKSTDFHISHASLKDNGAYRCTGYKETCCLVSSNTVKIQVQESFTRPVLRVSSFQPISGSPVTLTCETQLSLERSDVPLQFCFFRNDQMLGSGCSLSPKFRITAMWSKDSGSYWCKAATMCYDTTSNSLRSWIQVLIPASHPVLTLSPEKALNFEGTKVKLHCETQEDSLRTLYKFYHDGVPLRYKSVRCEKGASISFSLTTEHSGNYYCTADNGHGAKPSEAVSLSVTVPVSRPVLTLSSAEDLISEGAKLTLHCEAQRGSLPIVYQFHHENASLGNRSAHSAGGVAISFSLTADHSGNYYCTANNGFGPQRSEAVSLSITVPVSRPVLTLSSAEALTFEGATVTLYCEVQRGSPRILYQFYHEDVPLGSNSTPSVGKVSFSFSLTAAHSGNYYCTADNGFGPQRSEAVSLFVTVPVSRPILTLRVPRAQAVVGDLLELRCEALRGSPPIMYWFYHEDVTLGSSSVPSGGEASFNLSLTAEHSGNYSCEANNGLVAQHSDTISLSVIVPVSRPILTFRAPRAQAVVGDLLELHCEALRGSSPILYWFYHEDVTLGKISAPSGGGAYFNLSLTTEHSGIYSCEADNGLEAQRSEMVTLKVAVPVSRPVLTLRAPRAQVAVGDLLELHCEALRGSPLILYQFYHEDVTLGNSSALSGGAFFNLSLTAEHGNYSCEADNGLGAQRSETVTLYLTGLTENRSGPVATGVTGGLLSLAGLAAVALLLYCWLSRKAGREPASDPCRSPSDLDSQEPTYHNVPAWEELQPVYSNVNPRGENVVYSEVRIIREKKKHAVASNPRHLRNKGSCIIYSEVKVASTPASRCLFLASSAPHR


Legend:
[1] = biological target: T1, human FcRH3 (full-length, on SVT2 cells); test: FACS, SVT2 cells, 3 µg/ml
Protocol: (§1) Human FcRH5, cyno FcRH5, human FcRH1, FcRH2, FcRH3, and FcRH4 transfected mouse SVT2 cells were used to test binding and cross-reactivity of FcRH5 TDBs. The method was carried out as follows. Cultured SVT2 cells were lifted using non-enzyme cell dissociation buffer (Sigma, #C5914). 1×10⁵ cells were suspended in 100 μL and incubated with FcRH5 TDBs at 3 μg/ml. […] Cells were washed twice with FACS buffer before flow cytometry analysis was carried out on a FACSCalibur.

[2] = biological target: T2, cynomolgus FcRH5 (full-length, on cells); test: FACS, SVT2 cells, 3 µg/ml
Protocol: as §1

| Binder | binding result [1] | binding result [2] |
| --- | --- | --- |
| hu1G7.v1.13.1/38E4.v1 TDB (bispecific antibody, V domains shown, knob-into-hole TDB; also called 1G7.v1.13.1 TDB) VH 1: EVQLVESGPGLVKPSETLSLTCTVSGFSLTRFGVHWVRQPPGKGLEWLGVIWRGGSTDYNAAFMSRLTISKDNSKNQVSLKLSSVTAADTAVYYCSNHYYGSSDYALDNWGQGTLVTVSS VL 1: DIQMTQSPSSLSASVGDRVTITCKASQDVRNLVVWFQQKPGKAPKLLIYSGYYRYTGVPSRFSGSGSGTDFTLTISSLQPEDFATYYCQQHYQPPYTFGQGTKVEIK VH 2: EVQLVQSGAEVKKPGASVKVSCKASGFTFTSYYIHWVRQAPGQGLEWIGWIYPENDNTKYNEKFKDRVTITADTSTSTAYLELSSLRSEDTAVYYCARDGYSRYYFDYWGQGTLVTVSS VL 2: DIVMTQSPDSLAVSLGERATINCKSSQSLLNSRTRKNYLAWYQQKPGQSPKLLIYWTSTRKSGVPDRFSGSGSGTDFTLTISSLQAEDVAVYYCKQSFILRTFGQGTKVEIK | binds | binds |
| hu1G7.v1.3/38E4.v1 TDB (bispecific antibody, V domains shown, knob-into-hole TDB; also called 1G7.v1.3 TDB) VH 1: EVQLVESGPGLVKPSETLSLTCTVSGFSLTRFGVHWVRQPPGKGLEWLGVIWRGGSTDYNAAFMSRLTISKDNSKNQVSLKLSSVTAADTAVYYCSNHYYGSSDYALDNWGQGTLVTVSS VL 1: DIQMTQSPSSLSASVGDRVTITCKASQDVRNIVVWFQQKPGKAPKLLIYSGSYRYSGVPSRFSGSGSGTDFTLTISSLQPEDFATYYCQQQYSPPYTFGQGTKVEIK VH 2: EVQLVQSGAEVKKPGASVKVSCKASGFTFTSYYIHWVRQAPGQGLEWIGWIYPENDNTKYNEKFKDRVTITADTSTSTAYLELSSLRSEDTAVYYCARDGYSRYYFDYWGQGTLVTVSS VL 2: DIVMTQSPDSLAVSLGERATINCKSSQSLLNSRTRKNYLAWYQQKPGQSPKLLIYWTSTRKSGVPDRFSGSGSGTDFTLTISSLQAEDVAVYYCKQSFILRTFGQGTKVEIK | binds | binds |
| hu1G7.v1.1/38E4.v1 TDB (bispecific antibody, V domains shown, knob-into-hole TDB; also called 1G7.v1.1 TDB) VH 1: EVQLVESGPGLVKPSETLSLTCTVSGFSLTRFGVHWVRQPPGKGLEWLGVIWRGGSTDYNAAFMSRLTISKDNSKNQVSLKLSSVTAADTAVYYCSNHYYGSSDYALDNWGQGTLVTVSS VL 1: DIQMTQSPSSLSASVGDRVTITCKASQDVRNLVVWFQQKPGKAPKLLIYSGSYRYSGVPSRFSGSGSGTDFTLTISSLQPEDFATYYCQQQYSPPYTFGQGTKVEIK VH 2: EVQLVQSGAEVKKPGASVKVSCKASGFTFTSYYIHWVRQAPGQGLEWIGWIYPENDNTKYNEKFKDRVTITADTSTSTAYLELSSLRSEDTAVYYCARDGYSRYYFDYWGQGTLVTVSS VL 2: DIVMTQSPDSLAVSLGERATINCKSSQSLLNSRTRKNYLAWYQQKPGQSPKLLIYWTSTRKSGVPDRFSGSGSGTDFTLTISSLQAEDVAVYYCKQSFILRTFGQGTKVEIK | binds | binds |
| hu1G7.v1.2/38E4.v1 TDB (bispecific antibody, V domains shown, knob-into-hole TDB; also called 1G7.v1.2 TDB) VH 1: EVQLVESGPGLVKPSETLSLTCTVSGFSLTRFGVHWVRQPPGKGLEWLGVIWRGGSTDYNAAFMSRLTISKDNSKNQVSLKLSSVTAADTAVYYCSNHYYGSSDYALDNWGQGTLVTVSS VL 1: DIQMTQSPSSLSASVGDRVTITCKASQDVRNLVVWFQQKPGKAPKLLIYSGYNRYSGVPSRFSGSGSGTDFTLTISSLQPEDFATYYCQQQFQPPYTFGQGTKVEIK VH 2: EVQLVQSGAEVKKPGASVKVSCKASGFTFTSYYIHWVRQAPGQGLEWIGWIYPENDNTKYNEKFKDRVTITADTSTSTAYLELSSLRSEDTAVYYCARDGYSRYYFDYWGQGTLVTVSS VL 2: DIVMTQSPDSLAVSLGERATINCKSSQSLLNSRTRKNYLAWYQQKPGQSPKLLIYWTSTRKSGVPDRFSGSGSGTDFTLTISSLQAEDVAVYYCKQSFILRTFGQGTKVEIK | binds | binds |
| hu1G7.v1.13/38E4.v1 TDB (bispecific antibody, V domains shown, knob-into-hole TDB; also called 1G7.v1.13 TDB) VH 1: EVQLVESGPGLVKPSETLSLTCTVSGFSLTRFGVHWVRQPPGKGLEWIGVIWRGGSTDYNAAFMSRLTISKDNSKNQVSLKLSSVTAADTAVYYCSNHYYGSSDYALDNWGQGTLVTVSS VL 1: DIQMTQSPSSLSASVGDRVTITCKASQDVRNLVVWFQQKPGKAPKLLIYSGYYRYTGVPSRFSGSGSGTDFTLTISSLQPEDFATYYCQQHYQPPYTFGQGTKVEIK VH 2: EVQLVQSGAEVKKPGASVKVSCKASGFTFTSYYIHWVRQAPGQGLEWIGWIYPENDNTKYNEKFKDRVTITADTSTSTAYLELSSLRSEDTAVYYCARDGYSRYYFDYWGQGTLVTVSS VL 2: DIVMTQSPDSLAVSLGERATINCKSSQSLLNSRTRKNYLAWYQQKPGQSPKLLIYWTSTRKSGVPDRFSGSGSGTDFTLTISSLQAEDVAVYYCKQSFILRTFGQGTKVEIK | binds | binds |
